The values that follow come from paper PMC6393246, “Structural identification of conserved RNA binding sites in herpesvirus ORF57 homologs: implications for PAN RNA recognition” (Nucleic Acids Research, 2018).

Data set [1] deals with the molecule itself. Description: SEC-MALS; 0.5 ml at 1 mg/ml on Superdex 200 10/300GL, gel filtration buffer (20 mM HEPES, 150 mM NaCl, 50 mM L-Arg, 50 mM L-Glu, 1 mM TCEP, pH 7.4); homo-dimer.
The target of data set [2] is T1, hvsORF57Δ146 (herpesvirus saimiri (HVS), UniProt P13199 146-417). As to the kind of experiment: X-ray crystallography; Zn2+ in protein; Mg2+/Ca2+ in crystallization; SPR: 20 mM HEPES, 250 mM NaCl, 0.05% Tween-20, pH 7.4, 25 C, protein up to 1 uM; NMR: 20 mM Na phosphate, 50 mM NaCl, 50 mM L-Arg, 50 mM L-Glu, 1 mM EDTA, 2 mM. To be noted: protein: recombinant; tags: thioredoxin/Strep tag cleaved by HRV3C; residue 145 is cloning Gly; chain copies: 2.

Data set [3] has as its target T2, ksORF57 68-178 (Kaposi's sarcoma-associated herpesvirus …, UniProt Q2HR75 68-178).
T2 sequence: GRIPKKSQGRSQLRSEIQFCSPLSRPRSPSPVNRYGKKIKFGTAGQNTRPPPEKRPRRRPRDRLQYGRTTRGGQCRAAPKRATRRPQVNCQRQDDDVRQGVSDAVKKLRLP
Description: NMR HSQC; equimolar, 50 uM protein; substantial broadening; SPR: 20 mM HEPES, 250 mM NaCl, 0.05% Tween-20, pH 7.4, 25 C, protein up to 1 uM; NMR: 20 mM Na phosphate, 50 mM NaCl, 50 mM L-Arg, 50 mM L-Glu, 1 mM EDTA, 2 mM. To be noted: protein: recombinant; tags: His-tag (purification), 15N labelled.

The target in data set [4] is T3, UL69 200-540 (HCMV, UniProt P16749 200-540).
T3 sequence: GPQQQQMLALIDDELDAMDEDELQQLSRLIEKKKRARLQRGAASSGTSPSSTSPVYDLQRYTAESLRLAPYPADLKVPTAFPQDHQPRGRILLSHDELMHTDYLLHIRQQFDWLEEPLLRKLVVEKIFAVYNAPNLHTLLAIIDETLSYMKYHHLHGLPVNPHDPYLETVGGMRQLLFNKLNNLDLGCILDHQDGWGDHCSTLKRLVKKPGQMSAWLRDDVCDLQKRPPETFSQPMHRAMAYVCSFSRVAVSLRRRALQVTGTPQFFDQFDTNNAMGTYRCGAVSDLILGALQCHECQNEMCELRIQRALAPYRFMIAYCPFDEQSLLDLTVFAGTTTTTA
Description: SPR; SPR: 20 mM HEPES, 250 mM NaCl, 0.05% Tween-20, pH 7.4, 25 C, protein up to 1 uM; NMR: 20 mM Na phosphate, 50 mM NaCl, 50 mM L-Arg, 50 mM L-Glu, 1 mM EDTA, 2 mM. To be noted: protein: recombinant; tags: Strep-tag (purification); chain copies: 4; label: 5'-biotin. In general terms: SPR reads the build-up and loss of mass on a sensor chip optically.

Data set [5] has as its target ICP27Δ241 (HSV-1, UniProt P10238 241-512). The data set is described as above. To be noted: protein: recombinant; tags: Strep-tag (purification); label: 5'-biotin.
The target of data set [6] is T4, ksORF57Δ153 (Kaposi's sarcoma-associated herpesvirus …, UniProt Q2HR75 153-455).
T4 sequence: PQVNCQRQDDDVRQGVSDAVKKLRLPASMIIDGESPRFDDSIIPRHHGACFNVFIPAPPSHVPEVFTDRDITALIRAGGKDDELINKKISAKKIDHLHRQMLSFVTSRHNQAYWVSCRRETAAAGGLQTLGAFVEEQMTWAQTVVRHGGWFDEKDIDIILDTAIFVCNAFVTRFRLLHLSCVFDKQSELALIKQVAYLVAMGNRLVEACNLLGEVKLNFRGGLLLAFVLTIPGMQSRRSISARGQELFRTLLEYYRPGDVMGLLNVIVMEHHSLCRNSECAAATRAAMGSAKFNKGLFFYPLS
The data set is described as above. To be noted: protein: recombinant; tags: thioredoxin/Strep tag cleaved by HRV3C; chain copies: 2; label: 5'-biotin.

The target in data set [7] is T1, hvsORF57Δ146. The description is as above. To be noted: protein: recombinant; tags: thioredoxin/Strep tag cleaved by HRV3C; residue 145 is cloning Gly; chain copies: 2; label: 5'-biotin.
The target of data set [8] is T1, hvsORF57Δ146. Description: X-ray crystallography; same U-bend interaction as PAN17; data not shown; SPR: 20 mM HEPES, 250 mM NaCl, 0.05% Tween-20, pH 7.4, 25 C, protein up to 1 uM; NMR: 20 mM Na phosphate, 50 mM NaCl, 50 mM L-Arg, 50 mM L-Glu, 1 mM EDTA, 2 mM. To be noted: protein: recombinant; tags: thioredoxin/Strep tag cleaved by HRV3C; residue 145 is cloning Gly; chain copies: 2.

B1: KSHV ORF57 residues 153–455 (ksORF57Δ153) (domain or fragment)
chain: T4 sequence
notes: ORF57/Mta (ICP27 homolog) of Kaposi's sarcoma-associated herpesvirus (KSHV), residues 153-455, the C-terminal ICP27-homology domain; also called C-terminal IHD of ksORF57; source: E. coli T7 express LysY, purified (StrepTrap HP, HRV3C cleavage, Superdex 75); not shown: thioredoxin, N-terminal, cleaved
Take B1: the “stoichiometry N” value in data set [1] worked out at 2.

B2: PAN17 (crystal) (ssRNA)
RNA: CACCUAUGGAUUUUGUG
As to B2, in data set [2], the binding result was “binds”.

B3: 14merS (ssRNA)
RNA: CAGUCGCGAAGAGG
As for B3, in data set [3], the binding result is recorded as “binds”.

B4: 14merS (5'-biotin) (ssRNA)
RNA: CAGUCGCGAAGAGG
As to B4, the values for the binding result in data set [4] and in data set [5] were “binds” and “no binding”, respectively.

B5: PAN17 (5'-biotin) (ssRNA)
RNA: CACCUAUGGAUUUUGUG
With B5, the binding result is “binds” in data set [6], “binds” in data set [7], “binds” in data set [4] and “no binding” in data set [5].

B6: PAN 42-49 (ssRNA)
RNA: GAUUUUGU
With B6, the binding result in data set [8] is recorded as “binds”.

B7: 14mer1 (5'-biotin) (ssRNA)
RNA: CCGUCCCCGCCGCU
For the molecule B7, the binding result was “no binding” in data set [6], “no binding” in data set [7], “binds” in data set [4] and “no binding” in data set [5].

B8: HVS ORF57 residues 146–417 (hvsORF57Δ146) (domain or fragment)
chain: PLLKLFDISILPKSGEPKLFLPVPSLPCQEAEKTNDKYVLAMAQRAMHDVPISSKQLTANLLPVKFKPLLSIVRYTPNYYYWVSMRKETIASANLCTVAAFLDESLCWGQQYLKNDFIFSENGKDIILDTSSALLSQLVHKIKMLPFCHCLMQTTPQDHIVKQVCYLIASNNRILDAVRYLQTSVIKSPIVLLLAYAVCLPAAIICTKNETQLYSHCMRILKEYRPGDVMNILHESLTQHLNKCPSSTCAYTTRAIVGTKANTTGLFFLPTQ
notes: ORF57 (ICP27 homolog) of herpesvirus saimiri (HVS), residues 146-417, the C-terminal ICP27-homology domain; Selenomethionine-derivatised protein was used for crystals of the free form; native protein for the RNA complex and SEC-MALS; also called C-terminal IHD of hvsORF57; C-terminal ICP27-homology domain of HVS ORF57; source: E. coli T7 express LysY, purified (StrepTrap HP, HRV3C cleavage, …)
For B8, the “stoichiometry N” value in data set [1] came to 2.

The stoichiometry N is a count of units in the complex or per binding partner.
